Patent publication US9234036B2, “Modulation of activity of proneurotrophins” (H. Lundbeck A/S, priority 2006, dated 2016)

Legend:
pro-dom-NGF = molecular target: T1, pro-dom-NGF (Homo sapiens, UniProt P01138, A35V); experiment: SPR direct binding of sortilin peptides to immobilized pro-dom-NGF; conditions: concentration series of peptide, FIG. 18
T1 construct: pro-dom-NGF (residues Glu^1-Arg^102); made in house; host or cells: E. coli BL21/DE3
T1 sequence (P01138 19-121 A35V): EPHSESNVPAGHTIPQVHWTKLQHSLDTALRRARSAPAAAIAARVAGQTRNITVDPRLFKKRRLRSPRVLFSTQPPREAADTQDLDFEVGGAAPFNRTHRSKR
Text: (§1) FIG. 18: Surface plasmon resonance binding analysis of sortilin peptides to pro-dom-NGF and -BDNF. The direct interaction between sortilin peptides (as identified by SPOT analysis) and the pro-domains of NGF and BDNF was verified by surface plasmon resonance analysis using immobilized pro-dom-NGF and -BDNF. […] The numbering in this figure refers to the mature part of Sortilin.
A biosensor chip from Biacore (CM5, cat. no. BR-1000-14) was activated using the NHS/EDC method as described by supplier followed by coating with Sortilin to a protein densitiy of 79 fmol/mm2, and used for affinity measurements of the recombinant pro-domains of NGF and BDNF. Regeneration of the flow cell after each cycle of ligand binding experiment was performed by two 10 uL pulses of regeneration buffer (10 mM glycine-HCl, pH 4.0, 500 mM NaCl, 20 mM EDTA, and 0.005% Tween-20) and a single injection of 0.001% SDS. Fitting of sensorgrams for affinity estimations was performed using the Biaevaluation version 3.1. Following similar protocols, immobilization of pro-dom-NGF or pro-dom-BDNF was also performed on a CM5 biosensor chip using the NHS/EDC coupling kit according to manufactures instructions (Biacore, Sweden), giving similar surface densitites of immobilized protein (˜300 fmol/mm2). […]

pro-dom-BDNF = molecular target: T2, pro-dom-BDNF (Homo sapiens, UniProt P23560); experiment: SPR direct binding of sortilin peptides to immobilized pro-dom-BDNF; conditions: for direct interaction with immobilized pro-dom-BDNF: concentration series of peptide, FIG. 18; for affinity towards pro-dom-BDNF compared with pro-dom-NGF: single peptide concentration, identical amounts of immobilized pro-dom-NGF and -BDNF
T2 construct: pro-dom-BDNF (residues Ala^1-Arg^110); made in house; host or cells: E. coli BL21/DE3
T2 sequence (P23560 19-128 limits assumed): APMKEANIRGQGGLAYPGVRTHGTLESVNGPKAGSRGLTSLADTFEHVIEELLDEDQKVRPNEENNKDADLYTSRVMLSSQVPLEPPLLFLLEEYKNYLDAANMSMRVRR
Text: as §1
(§2) A biosensor chip from Biacore (CM5, cat. no. BR-1000-14) was activated using the NHS/EDC method as described by supplier followed by coating with Sortilin to a protein densitiy of 79 fmol/mm2, and used for affinity measurements of the recombinant pro-domains of NGF and BDNF. Regeneration of the flow cell after each cycle of ligand binding experiment was performed by two 10 uL pulses of regeneration buffer (10 mM glycine-HCl, pH 4.0, 500 mM NaCl, 20 mM EDTA, and 0.005% Tween-20) and a single injection of 0.001% SDS. Fitting of sensorgrams for affinity estimations was performed using the Biaevaluation version 3.1. Following similar protocols, immobilization of pro-dom-NGF or pro-dom-BDNF was also performed on a CM5 biosensor chip using the NHS/EDC coupling kit according to manufactures instructions (Biacore, Sweden), giving similar surface densitites of immobilized protein (˜300 fmol/mm2). […] This chip was subsequent used to examine the binding of 390 nM wild-type Sortilin domain in CaHBS buffer at a flow of 5 uL/min, which in the absence of any competing peptide gave a ˜300 RU signal.

[1] = molecular target: T3, Sortilin binding to immobilized pro-dom-BDNF (Homo sapiens, UniProt P23560); experiment: SPR competition: Sortilin binding to immobilized pro-dom-BDNF in presence of sortilin peptide
T3 construct: pro-dom-BDNF (residues Ala^1-Arg^110); made in house; host or cells: pro-dom-BDNF: E. coli BL21/DE3; Sortilin: EBNA293 cells
T3 sequence (P23560 19-128 limits assumed): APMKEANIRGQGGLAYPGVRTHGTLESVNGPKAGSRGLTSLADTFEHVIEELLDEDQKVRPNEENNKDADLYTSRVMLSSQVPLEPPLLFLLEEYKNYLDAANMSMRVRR
Description: FIG. 19: Surface plasmon resonance analysis of competition studies by the sortilin peptides.
as §2

[2] = molecular target: T4, p75-IgG-Fc chimeric protein (Homo sapiens, UniProt P08138); experiment: Surface plasmon resonance (BIAcore) binding to immobilized p75-IgG-Fc; conditions: 91.5 fmol/mm^2 immobilized p75-IgG-Fc; calculated from on and off rates
T4 construct: purchased R&D systems (Oxon, UK)
T4 sequence (P08138 with tags, fused parts or gaps limits assumed): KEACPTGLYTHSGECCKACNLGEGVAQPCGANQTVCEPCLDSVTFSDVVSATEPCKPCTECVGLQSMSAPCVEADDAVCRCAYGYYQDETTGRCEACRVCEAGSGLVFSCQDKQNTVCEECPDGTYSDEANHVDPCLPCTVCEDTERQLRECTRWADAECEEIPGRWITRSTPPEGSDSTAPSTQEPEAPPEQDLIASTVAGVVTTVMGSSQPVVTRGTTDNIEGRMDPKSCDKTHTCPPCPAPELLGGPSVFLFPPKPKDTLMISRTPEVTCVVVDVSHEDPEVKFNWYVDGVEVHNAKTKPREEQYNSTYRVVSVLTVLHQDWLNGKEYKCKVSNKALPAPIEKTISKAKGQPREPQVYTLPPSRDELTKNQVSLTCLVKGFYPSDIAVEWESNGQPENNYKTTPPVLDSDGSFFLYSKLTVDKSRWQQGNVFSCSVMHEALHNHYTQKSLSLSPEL
Description: (§3) FIG. 2: Characterization of NGF binding to p75, TrkA, and Sortilin as measured by surface plasmon resonance analysis (BIAcore). Binding of 50-500 nM NGF was measured to 91.5 fmol/mm^2 immobilized p75-IgG-Fc chimeric protein (upper panel), to 66 fmol/mm^2 immobilized TrkA-IgG-Fc (middle panel), and to 51 fmol/mm^2 purified Sortilin extracellular domain (lower panel). The on and off rates—100 to 600 seconds and 600 to 1000 seconds, respectively—were recorded and the Kd values for NGF binding were calculated to ˜1 nM for p75, ˜2 nM for TrkA, and ˜8 nM for Sortilin. […]
(§4) FIG. 3: Characterization of proNGF binding to p75, TrkA, and Sortilin as measured by surface plasmon resonance analysis (Biacore). Binding of 25-500 nM proNGF was measured to 91.5 fmol/mm^2 immobilized p75-IgG-Fc chimeric protein (upper panel), to 66 fmol/mm^2 immobilized TrkA-IgG-Fc (middle panel), and to 51 fmol/mm^2 purified Sortilin extracellular domain (lower panel). […]
(§5) FIG. 4: Characterization of binding of the proNGF propeptide to p75, TrkA, and Sortilin as measured by surface plasmon resonance analysis (Biacore). Binding of 25-500 nM propeptide was measured to 91.5 fmol/mm^2 immobilized p75-IgG-Fc chimeric protein (upper panel), to 66 fmol/mm^2 immobilized TrkA-IgG-Fc (middle panel), and to 51 fmol/mm^2 purified Sortilin extracellular domain (lower panel). […]

[3] = molecular target: T5, proNGF binding to immobilized Sortilin (Homo sapiens, UniProt Q99523); experiment: Inhibition of proNGF binding to immobilized Sortilin (Biacore); conditions: 5 μM inhibitor prebound, then coinjection; 51 fmol/mm^2 Sortilin (FIG. 6)
T5 construct: 51 fmol/mm^2 purified Sortilin extracellular domain; made in house; host or cells: Sortilin: stably transfected CHO cells; proNGF: E. coli
T5 sequence (Q99523 78-755 limits assumed): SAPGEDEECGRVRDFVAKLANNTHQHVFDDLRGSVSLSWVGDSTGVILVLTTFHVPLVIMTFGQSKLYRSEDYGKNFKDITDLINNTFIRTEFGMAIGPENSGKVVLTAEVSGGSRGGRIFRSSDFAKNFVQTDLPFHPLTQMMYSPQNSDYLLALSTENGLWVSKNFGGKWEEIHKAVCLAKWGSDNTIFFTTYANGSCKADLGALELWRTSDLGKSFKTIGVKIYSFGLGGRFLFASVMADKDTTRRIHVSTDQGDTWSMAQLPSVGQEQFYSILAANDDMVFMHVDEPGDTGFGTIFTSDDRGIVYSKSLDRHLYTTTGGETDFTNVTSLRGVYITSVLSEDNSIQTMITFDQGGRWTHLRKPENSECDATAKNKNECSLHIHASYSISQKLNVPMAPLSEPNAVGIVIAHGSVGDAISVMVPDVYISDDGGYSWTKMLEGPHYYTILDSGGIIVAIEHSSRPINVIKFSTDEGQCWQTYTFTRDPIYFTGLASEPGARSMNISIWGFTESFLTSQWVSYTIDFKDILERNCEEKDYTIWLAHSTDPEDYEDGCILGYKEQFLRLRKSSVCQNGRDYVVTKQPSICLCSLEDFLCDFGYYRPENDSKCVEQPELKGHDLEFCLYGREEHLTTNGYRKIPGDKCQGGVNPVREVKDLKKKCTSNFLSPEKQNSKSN

TrkA-IgG-Fc = molecular target: T6, TrkA-IgG-Fc (Homo sapiens, UniProt P04629); experiment: Surface plasmon resonance (BIAcore) binding to immobilized TrkA-IgG-Fc; conditions: 66 fmol/mm^2 immobilized TrkA-IgG-Fc; calculated from on and off rates
T6 construct: purchased R&D systems (Oxon, UK)
T6 sequence (P04629 34-407 isoform P04629-2 limits assumed): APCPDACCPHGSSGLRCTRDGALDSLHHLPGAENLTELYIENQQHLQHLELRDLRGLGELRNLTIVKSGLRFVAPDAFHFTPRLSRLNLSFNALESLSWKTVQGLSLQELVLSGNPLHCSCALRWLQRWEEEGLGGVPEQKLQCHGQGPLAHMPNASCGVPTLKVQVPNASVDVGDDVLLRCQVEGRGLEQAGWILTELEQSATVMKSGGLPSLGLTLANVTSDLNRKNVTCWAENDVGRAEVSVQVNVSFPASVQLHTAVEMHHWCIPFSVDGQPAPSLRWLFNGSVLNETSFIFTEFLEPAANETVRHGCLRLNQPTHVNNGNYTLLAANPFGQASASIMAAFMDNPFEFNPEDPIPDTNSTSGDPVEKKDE
Description: as §3, §4, §5

[4] = molecular target: T7, Sortilin extracellular domain (Homo sapiens, UniProt Q99523); experiment: Surface plasmon resonance (BIAcore) binding to immobilized purified Sortilin extracellular domain; conditions: 51 fmol/mm^2 purified Sortilin extracellular domain; calculated from on and off rates
T7 construct: 51 fmol/mm^2 purified Sortilin extracellular domain; made in house; host or cells: stably transfected CHO cells
T7 sequence (Q99523 78-755 limits assumed): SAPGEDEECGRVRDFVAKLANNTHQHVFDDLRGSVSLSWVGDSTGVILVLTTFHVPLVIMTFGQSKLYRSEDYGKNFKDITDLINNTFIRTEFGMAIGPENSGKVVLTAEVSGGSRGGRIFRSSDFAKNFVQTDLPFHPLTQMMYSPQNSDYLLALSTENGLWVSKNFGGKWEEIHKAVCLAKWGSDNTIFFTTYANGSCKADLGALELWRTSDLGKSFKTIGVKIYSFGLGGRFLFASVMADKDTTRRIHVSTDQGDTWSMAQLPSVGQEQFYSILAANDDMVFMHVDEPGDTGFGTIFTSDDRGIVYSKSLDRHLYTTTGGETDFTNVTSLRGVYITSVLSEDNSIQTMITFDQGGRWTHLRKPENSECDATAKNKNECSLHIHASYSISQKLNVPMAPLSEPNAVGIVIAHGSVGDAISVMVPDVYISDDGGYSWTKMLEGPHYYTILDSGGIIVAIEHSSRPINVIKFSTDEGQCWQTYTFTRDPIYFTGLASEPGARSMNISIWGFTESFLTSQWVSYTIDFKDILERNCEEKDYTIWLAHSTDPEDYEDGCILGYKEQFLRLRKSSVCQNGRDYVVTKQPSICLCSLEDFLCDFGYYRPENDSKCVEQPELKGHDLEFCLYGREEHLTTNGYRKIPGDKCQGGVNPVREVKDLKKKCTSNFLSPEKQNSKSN
Description: as §3, §4, §5

RIFRSSDFAKNF (listed as Homo Sapiens)
direct interaction with immobilized pro-dom-NGF (pro-dom-NGF): direct binding | direct interaction with immobilized pro-dom-BDNF (pro-dom-BDNF): direct binding | affinity towards pro-dom-BDNF compared with pro-dom-NGF (pro-dom-BDNF): higher affinity of the peptides towards BDNF than NGF

RSSDFAKNFVQTDLPF (listed as Homo Sapiens)
direct interaction with immobilized pro-dom-NGF (pro-dom-NGF): direct binding | inhibition of Sortilin binding to immobilized pro-dom-BDNF ([1]; 300 uM peptide, 390 nM wild-type Sortilin domain, CaHBS buffer): ~66% | competition of sortilin binding to immobilized pro-dom-BDNF ([1]; FIG. 19, + peptide): significantly inhibited | direct interaction with immobilized pro-dom-BDNF (pro-dom-BDNF): direct binding | affinity towards pro-dom-BDNF compared with pro-dom-NGF (pro-dom-BDNF): higher affinity of the peptides towards BDNF than NGF

proNGF: Human recombinant proNGF produced and purified in E. coli
Kd [2]: ~12 nM

B1: proNGF propeptide: human NGF-propeptide expressed in E. coli (protein)
chain: EPHSESNVPAGHTIPQVHWTKLQHSLDTALRRARSAPAAAIAARVAGQTRNITVDPRLFKKRRLRSPRVLFSTQPPREAADTQDLDFEVGGAAPFNRTHRSKR
inhibition of binding of 200 nM proNGF to immobilized Sortilin [3]: ~85% | Kd for binding to TrkA (TrkA-IgG-Fc): no detectable binding | Kd for binding to p75 [2]: no detectable binding | Kd [4]: ~8 nM
